Laboratory results published in the Immune Epitope Database (IEDB).

Experiments:
[1] = target: HLA-B*18:01; assay: IEDB peptide-MHC binding, purified MHC/direct/fluorescence; filed as Kd, often an IC50 or EC50 that approximates it; ≥ and ≤ were set here for values at or beyond the usual limits of such assays; settings: source organism: Influenza A virus (A/tern/Australia/1/04(H2N5))
[2] = target: HLA-B*40:01; assay: as above; settings: source organism: Influenza A virus (A/tern/Australia/1/04(H2N5))
[3] = target: HLA-B*44:02; assay: as above; settings: source organism: Influenza A virus (A/tern/Australia/1/04(H2N5))
[4] = target: HLA-A*32:01; assay: IEDB peptide-MHC binding, purified MHC/competitive/radioactivity; filed as Kd, often an IC50 or EC50 that approximates it; ≥ and ≤ were set here for values at or beyond the usual limits of such assays
[5] = target: HLA-B*15:01; assay: as above
[6] = target: HLA-A*01:01; assay: as above
[7] = target: HLA-A*26:01; assay: as above
[8] = target: HLA-A*29:02; assay: as above
[9] = target: HLA-A*30:01; assay: as above
[10] = target: HLA-A*30:02; assay: as above
[11] = target: HLA-B*35:01; assay: as above
[12] = target: HLA-A*02:01; assay: IEDB peptide-MHC binding, purified MHC/competitive/fluorescence; filed as Kd, often an IC50 or EC50 that approximates it; ≥ and ≤ were set here for values at or beyond the usual limits of such assays; settings: source organism: human gammaherpesvirus 4
[13] = target: HLA-A*24:02; assay: IEDB peptide-MHC binding, purified MHC/competitive/radioactivity; filed as Kd, often an IC50 or EC50 that approximates it; ≥ and ≤ were set here for values at or beyond the usual limits of such assays; settings: source organism: Dengue virus 3 Martinique/1243/1999
[14] = target: HLA-B*57:01; assay: IEDB peptide-MHC binding, purified MHC/direct/fluorescence; filed as Kd, often an IC50 or EC50 that approximates it; ≥ and ≤ were set here for values at or beyond the usual limits of such assays; settings: source organism: Vibrio alginolyticus 12G01
[15] = target: HLA-B*58:01; assay: as above; settings: source organism: Vibrio alginolyticus 12G01
[16] = target: HLA-B*53:01; assay: IEDB peptide-MHC binding, purified MHC/competitive/radioactivity; filed as Kd, often an IC50 or EC50 that approximates it; ≥ and ≤ were set here for values at or beyond the usual limits of such assays; settings: source organism: Dengue virus 1 Brazil/97-11/1997
[17] = source organism: Vaccinia virus WR
[18] = source organism: Dengue virus 1 Brazil/97-11/1997
[19] = source organism: Lassa virus Josiah
[20] = source organism: Mammarenavirus guanaritoense
[21] = source organism: Dengue virus 2 Jamaica/1409/1983
[22] = source organism: Dengue virus 3 Martinique/1243/1999

Sequence: SETQGTEKL
- Kd [1]: 2040 nM
- Kd [2]: 10.5 nM
- Kd [3]: ≥ 20000 nM

Sequence: SIISLFYTF
- Kd [4, 17]: 5.71 nM
- Kd [5, 17]: 1.37 nM

Sequence: SIKNLVSQF
- Kd [5, 17]: 24.7 nM

Sequence: SIPATLFVWY
- Kd [6, 18]: ≥ 20500 nM
- Kd [7, 18]: 128 nM

Sequence: SSGCYIHFF
- Kd [6, 19]: 195 nM
- Kd [7, 19]: ≥ 64100 nM
- Kd [8, 19]: ≥ 10000 nM
- Kd [9, 19]: 6860 nM
- Kd [10, 19]: 11500 nM
- Kd [4, 19]: ≥ 33600 nM

Sequence: STGNYVHCF
- Kd [6, 20]: 1300 nM
- Kd [7, 20]: ≥ 69200 nM
- Kd [8, 20]: ≥ 35900 nM
- Kd [9, 20]: 2740 nM
- Kd [10, 20]: ≥ 20300 nM
- Kd [4, 20]: 12100 nM

Sequence: TAVAPSMTM
- Kd [11, 21]: 15.7 nM

Sequence: TLFIGSHVV
- Kd [12]: 1.4 nM

Sequence: TSLTQKVVIF
- Kd [6, 22]: 8960 nM

Sequence: VFFTFVLLL
- Kd [13]: 258 nM

Sequence: VFIWFIFHF
- Kd ([5]; source organism: Vaccinia virus): 642 nM

Sequence: VSEPELCLL
- Kd [14]: ≥ 20000 nM
- Kd [15]: ≥ 20000 nM

Sequence: VSETQHGTIL
- Kd [6, 22]: ≥ 70400 nM

Sequence: VTYLALLAAF
- Kd [6, 21]: 14800 nM
- Kd [7, 21]: ≥ 69700 nM
- Kd [5, 21]: 40.7 nM

Sequence: WIAASIILEF
- Kd [5, 21]: 6.22 nM

Sequence: YSDPLALRE
- Kd [6, 18]: 262 nM

Sequence: YSDPLALREF
- Kd [6, 18]: 21.3 nM
- Kd [11, 18]: 1890 nM
- Kd [16]: 899 nM
